The values that follow come from publication PMC6699858, “Ternary structure of the outer membrane transporter FoxA with resolved signalling domain provides insights into TonB-mediated siderophore uptake” (eLife, 2019).

The target of one test is T1, FoxA (Pseudomonas aeruginosa, UniProt Q9I116).
T1 construct: Full-length FoxA, purified in nonyl glucopyranoside
In words: tryptophan fluorescence quenching (Kd […]); also ITC in nanodiscs (Kd […]) and co-crystal structures without and with TonBCt. The test is classed as binding.

Test [1] concerns the target T2, FoxA from Pseudomonas aeruginosa strain PAO1, full-length (Pseudomonas aeruginosa strain PAO1, UniProt Q9I116 1-820, Signal peptide taken as removed in the outer membrane; text gives the mature start as 44 or 45, and 45 is used. His6 tag removed by TEV, residual TEV-site residues at the C-terminus omitted. Ferrioxam). The experiment in a line: ITC; 150 μM TonBCt in the syringe, 15 μM apo FoxA in MSP1D1/POPC nanodiscs in the cell; 20 mM HEPES, 150 mM NaCl, pH 7.5; 26 °C; single-site model; triplicates, SD. The settings on record: both partners purified.

Test [2] addresses T2, FoxA from Pseudomonas aeruginosa strain …. In words: ITC; 150 μM TonBCt in the syringe, 15 μM ferrioxamine B-bound FoxA in MSP1D1/POPC nanodiscs in the cell (dialysed against 1 mM FoaB); 20 mM HEPES, 150 mM NaCl, pH 7.5; 26 °C; single-site model; triplicates, SD. The settings on record: both partners purified.

Regarding `CC(=O)N([O-])CCCCCNC(=O)CCC(=O)N([O-])CCCCCNC(=O)CCC(=O)N([O-])CCCCCN.[Fe+3]` [FoaB, ferrioxamine B], the Kd at FoxA was 100 ± 10 nM.

B1: TonBCt, C-terminal domain of TonB1 from Pseudomonas aeruginosa strain PAO1 (residues 251-340) (domain or fragment, UniProt Q51368 251-340, looked up)
chain: DSDIKPLRMDPPVYPRMAQARGIEGRVKVLFTITSDGRIDDIQVLESVPSRMFDREVRQAMAKWRFEPRVSGGKIVARQATKMFFFKIEK
notes: TonB1, Pseudomonas aeruginosa PAO1, residues 251-340 (C-terminal domain); also called TonB fragment; C-terminal TonB domain; source: E. coli BL21 Gold, purified (HisTrap Ni-NTA, TEV, reverse purification)
As for B1, in test [1], binding was put at a Kd of 111 nM and the dH was -10.1 kcal/mol. In test [2], this molecule registered a Kd of 6.6 nM and a dH of -18.1 kcal/mol.
